Source: US20230002480A1

How the values were obtained:
Test in all cases: cell-based or functional assay
[1] = target: HIV-1 Env of pseudovirus Du172.17 (HIV-1)
[2] = target: HIV-1 Env of pseudovirus Ce2060_G9 (HIV-1)
[3] = target: HIV-1 Env of pseudovirus 6244_13_B5_4576 (HIV-1)
[4] = target: HIV-1 Env of pseudovirus WEAU_d15_410_787 (HIV-1)
[5] = target: HIV-1 Env of pseudovirus 1394C9G1(Rev-) (HIV-1)
[6] = target: HIV-1 Env of pseudovirus HIV-16845-2.22 (HIV-1)
[7] = target: HIV-1 Env of pseudovirus WITO4160.33 (HIV-1)
[8] = target: HIV-1 Env of pseudovirus TRO.11 (HIV-1)
[9] = target: HIV-1 Env of pseudovirus C4118.c09 (HIV-1)
[10] = target: HIV-1 Env of pseudovirus Q259.d2.17 (HIV-1)
[11] = target: HIV-1 Env of pseudovirus 235-47 (HIV-1)
[12] = target: HIV-1 Env of pseudovirus BF1266.431a (HIV-1)
[13] = target: HIV-1 Env of pseudovirus Ce704809221_1B3 (HIV-1)
[14] = target: HIV-1 Env of pseudovirus 3016.v5.c45 (HIV-1)
[15] = target: HIV-1 Env of pseudovirus CAP45.2.00.G3 (HIV-1)
[16] = target: HIV-1 Env of pseudovirus A07412M1.vrc12 (HIV-1)
[17] = target: HIV-1 Env of pseudovirus 0815.v3.c3 (HIV-1)
[18] = target: HIV-1 Env of pseudovirus 62357_14_D3_4589 (HIV-1)
[19] = target: HIV-1 Env of pseudovirus CNE58 (HIV-1)
[20] = target: HIV-1 Env of pseudovirus R3265.c06 (HIV-1)
[21] = target: HIV-1 Env of pseudovirus CNE17 (HIV-1)
[22] = target: HIV-1 Env of pseudovirus 249M B10 (HIV-1)
[23] = target: HIV-1 Env of pseudovirus CNE30 (HIV-1)
[24] = target: HIV-1 Env of pseudovirus 191955_A11 (HIV-1)
[25] = target: HIV-1 Env of pseudovirus 191084 B7-19 (HIV-1)
[26] = target: HIV-1 Env of pseudovirus 6535.3 (HIV-1)
[27] = target: HIV-1 Env of pseudovirus QH0692.42 (HIV-1)
[28] = target: HIV-1 Env of pseudovirus 1006_11_C3_1601 (HIV-1)
[29] = target: HIV-1 Env of pseudovirus RHPA4259.7 (HIV-1)
[30] = target: HIV-1 Env of pseudovirus R1166.c01 (HIV-1)
[31] = target: HIV-1 Env of pseudovirus T250-4 (HIV-1)
[32] = target: HIV-1 Env of pseudovirus 1054_07_TC4_1499 (HIV-1)
[33] = target: HIV-1 Env of pseudovirus Ce1172_H1 (HIV-1)
[34] = target: HIV-1 Env of pseudovirus BJOX009000.02.4 (HIV-1)
[35] = target: HIV-1 Env of pseudovirus 7030102001E5(Rev-) (HIV-1)
[36] = target: HIV-1 Env of pseudovirus X2088_c9 (HIV-1)

PGT128 (antibody)
IC50 [1]: 0.028 µg/mL
IC80 [1]: 0.08 µg/mL
IC50 [2]: > 50 µg/mL
IC80 [2]: > 50 µg/mL
IC50 [3]: 0.02 µg/mL
IC80 [3]: 0.076 µg/mL
IC50 [4]: 0.032 µg/mL
IC80 [4]: 0.153 µg/mL
IC50 [5]: 0.011 µg/mL
IC80 [5]: 0.034 µg/mL
IC50 [6]: 0.181 µg/mL
IC80 [6]: 0.834 µg/mL
IC50 [7]: > 50 µg/mL
IC80 [7]: > 50 µg/mL
IC50 [8]: 0.019 µg/mL
IC80 [8]: 0.045 µg/mL
IC50, titer in TZM.bl cells [9]: > 50 µg/mL
IC80, titer in TZM.bl cells [9]: > 50 µg/mL
IC50 [10]: > 50 µg/mL
IC80 [10]: > 50 µg/mL
IC50, titer in TZM.bl cells [11]: > 50 µg/mL
IC80, titer in TZM.bl cells [11]: > 50 µg/mL
IC50 [12]: > 50 µg/mL
IC80 [12]: > 50 µg/mL
IC50 [13]: 0.026 µg/mL
IC80 [13]: 0.072 µg/mL
IC50, titer in TZM.bl cells [14]: > 50 µg/mL
IC80, titer in TZM.bl cells [14]: > 50 µg/mL
IC50 [15]: > 50 µg/mL
IC80 [15]: > 50 µg/mL
IC50, titer in TZM.bl cells [16]: > 50 µg/mL
IC80, titer in TZM.bl cells [16]: > 50 µg/mL
IC50, titer in TZM.bl cells [17]: 0.03 µg/mL
IC80, titer in TZM.bl cells [17]: 0.137 µg/mL
IC50 [18]: 1.14 µg/mL
IC80 [18]: > 50 µg/mL
IC50 [19]: 13.8 µg/mL
IC80 [19]: > 50 µg/mL
IC50, titer in TZM.bl cells [20]: > 50 µg/mL
IC80, titer in TZM.bl cells [20]: > 50 µg/mL
IC50 [21]: 0.432 µg/mL
IC80 [21]: 1.99 µg/mL
IC50 [22]: 7.87 µg/mL
IC80 [22]: > 50 µg/mL
IC50 [23]: 2.06 µg/mL
IC80 [23]: 12.6 µg/mL
IC50 [24]: 14.2 µg/mL
IC80 [24]: > 50 µg/mL
IC50 [25]: 0.022 µg/mL
IC80 [25]: 0.152 µg/mL
IC50 [26]: 0.004 µg/mL
IC80 [26]: 0.016 µg/mL
IC50 [27]: 0.029 µg/mL
IC80 [27]: 0.081 µg/mL
IC50 [28]: 0.011 µg/mL
IC80 [28]: 0.04 µg/mL
IC50 [29]: 0.026 µg/mL
IC80 [29]: 0.109 µg/mL
IC50, titer in TZM.bl cells [30]: > 50 µg/mL
IC80, titer in TZM.bl cells [30]: > 50 µg/mL
IC50 [31]: < 0.001 µg/mL
IC80 [31]: 0.007 µg/mL
IC50 [32]: 0.035 µg/mL
IC80 [32]: 0.312 µg/mL
IC50 [33]: 0.013 µg/mL
IC80 [33]: 0.038 µg/mL
IC50, titer in TZM.bl cells [34]: < 0.001 µg/mL
IC80, titer in TZM.bl cells [34]: 0.005 µg/mL
IC50 [35]: 0.007 µg/mL
IC80 [35]: 0.022 µg/mL
IC50, titer in TZM.bl cells [36]: > 50 µg/mL
IC80, titer in TZM.bl cells [36]: > 50 µg/mL

PGT145 (antibody)
IC50 [1]: > 50 µg/mL
IC80 [1]: > 50 µg/mL
IC50 [2]: 0.016 µg/mL
IC80 [2]: 0.205 µg/mL
IC50 [3]: 7.27 µg/mL
IC80 [3]: 44.5 µg/mL
IC50 [4]: 1.95 µg/mL
IC80 [4]: 31.5 µg/mL
IC50 [5]: 0.001 µg/mL
IC80 [5]: 0.005 µg/mL
IC50 [6]: > 50 µg/mL
IC80 [6]: > 50 µg/mL
IC50 [7]: < 0.001 µg/mL
IC80 [7]: 0.001 µg/mL
IC50 [8]: 0.04 µg/mL
IC80 [8]: 0.118 µg/mL
IC50, titer in TZM.bl cells [9]: < 0.001 µg/mL
IC80, titer in TZM.bl cells [9]: 0.004 µg/mL
IC50 [10]: 44.2 µg/mL
IC80 [10]: > 50 µg/mL
IC50, titer in TZM.bl cells [11]: 3.21 µg/mL
IC80, titer in TZM.bl cells [11]: 36 µg/mL
IC50 [12]: 1.34 µg/mL
IC80 [12]: 18.5 µg/mL
IC50 [13]: 0.102 µg/mL
IC80 [13]: 0.71 µg/mL
IC50, titer in TZM.bl cells [14]: > 50 µg/mL
IC80, titer in TZM.bl cells [14]: > 50 µg/mL
IC50 [15]: 0.001 µg/mL
IC80 [15]: 0.007 µg/mL
IC50, titer in TZM.bl cells [16]: 0.002 µg/mL
IC80, titer in TZM.bl cells [16]: 0.023 µg/mL
IC50, titer in TZM.bl cells [17]: > 50 µg/mL
IC80, titer in TZM.bl cells [17]: > 50 µg/mL
IC50 [18]: > 50 µg/mL
IC80 [18]: > 50 µg/mL
IC50 [19]: 0.183 µg/mL
IC80 [19]: 7.41 µg/mL
IC50, titer in TZM.bl cells [20]: 0.037 µg/mL
IC80, titer in TZM.bl cells [20]: 0.227 µg/mL
IC50 [21]: 0.091 µg/mL
IC80 [21]: 1.16 µg/mL
IC50 [22]: 0.947 µg/mL
IC80 [22]: 41.3 µg/mL
IC50 [23]: > 50 µg/mL
IC80 [23]: > 50 µg/mL
IC50 [24]: < 0.001 µg/mL
IC80 [24]: < 0.001 µg/mL
IC50 [25]: 0.028 µg/mL
IC80 [25]: 0.345 µg/mL
IC50 [26]: > 50 µg/mL
IC80 [26]: > 50 µg/mL
IC50 [27]: > 50 µg/mL
IC80 [27]: > 50 µg/mL
IC50 [28]: > 50 µg/mL
IC80 [28]: > 50 µg/mL
IC50 [29]: 0.029 µg/mL
IC80 [29]: 0.095 µg/mL
IC50, titer in TZM.bl cells [30]: 2.27 µg/mL
IC80, titer in TZM.bl cells [30]: 17.9 µg/mL
IC50 [31]: 0.002 µg/mL
IC80 [31]: 0.039 µg/mL
IC50 [32]: > 50 µg/mL
IC80 [32]: > 50 µg/mL
IC50 [33]: 0.26 µg/mL
IC80 [33]: 2.06 µg/mL
IC50, titer in TZM.bl cells [34]: 0.117 µg/mL
IC80, titer in TZM.bl cells [34]: 0.745 µg/mL
IC50 [35]: > 50 µg/mL
IC80 [35]: > 50 µg/mL
IC50, titer in TZM.bl cells [36]: > 50 µg/mL
IC80, titer in TZM.bl cells [36]: > 50 µg/mL
